Data reported in PMC11972413.

Assays:
Experiment in all cases: cryo-EM structure
[1] = target: adapter protein (bacteriophage φTE)
[2] = target: minor capsid protein (DEC) (bacteriophage φTE)
[3] = target: tail tube protein (bacteriophage φTE)
[4] = target: long-tail fiber (LTF) (bacteriophage φTE)
[5] = target: hub protein (bacteriophage φTE)
[6] = target: portal protein (bacteriophage φTE)
[7] = target: short-tail fiber (STF) (bacteriophage φTE)
[8] = target: tube initiator (TI) protein (bacteriophage φTE)
[9] = target: tape measure protein (TMP), six-stranded part along the tail (bacteriophage φTE)
[10] = target: tail sheath protein (bacteriophage φTE)
[11] = target: major capsid protein (MCP) (bacteriophage φTE)
[12] = target: puncture apparatus (PA) (bacteriophage φTE)

adapter protein (natural protein)
stoichiometry N [1]: 12

minor capsid protein (DEC) (natural protein)
stoichiometry N [2]: 3

tail tube protein (natural protein)
stoichiometry N [3]: 6

long-tail fiber (LTF) (natural protein)
stoichiometry N [4]: 3

hub protein (natural protein)
stoichiometry N [5]: 3

portal protein (natural protein)
stoichiometry N [6]: 12

short-tail fiber (STF) (natural protein)
stoichiometry N [7]: 3

tube initiator (TI) protein (natural protein)
stoichiometry N [8]: 6

tape measure protein (TMP), six-stranded part along the tail (natural protein)
stoichiometry N [9]: 6

tail sheath protein (natural protein)
stoichiometry N [10]: 6

major capsid protein (MCP) (natural protein)
stoichiometry N [11]: 6

puncture apparatus (PA) (natural protein)
stoichiometry N [5]: 1 | stoichiometry N [12]: 3
